# Experimental data published in PMC7954794, “Protein context shapes the specificity of SH3 domain-mediated interactions in vivo” (Nature Communications, 2021).
# B1: WT (protein, UniProt P15891 2-592, looked up)
# Actin-binding protein: ALEPIDYTTHSREIDAEYLKIVRGSDPDTTWLIISPNAKKEYEPESTGSSFHDFLQLFDETKVQYGLARVSPPGSDVEKIIIIGWCPDSAPLKTRASFAANFAAVANNLFKGYHVQVTARDEDDLDENELLMKISNAAGARYSIQTSSKQQGKASTPPVKKSFTPSKSPAPVSKKEPVKTPSPAPAAKISSRVNDNNDDDDWNEPELKERDFDQAPLKPNQSSYKPIGKIDLQKVIAEEKAKEDPRLVQKPTAAGSKIDPSSDIANLKNESKLKRDSEFNSFLGTTKPPSMTESSLKNDDDKVIKGFRNEKSPAQLWAERKAKQNSGNAETKAEAPKPEVPEDEPEGEPDVKDLKSKFEGLAASEKEEEEMENKFAPPPKKSEPTIISPKPFSKPQEPVKAEEAEQPKTDYKKIGNPLPGMHIEADNEEEPEENDDDWDDDEDEAAQPPLPSRNVASGAPVQKEEPEQEEIAPSLPSRNSIPAPKQEEAPEQAPEEEIEEEAEEAAPQLPSRSSAAPPPPPRRATPEKKPKENPWATAEYDYDAAEDNELTFVENDKIINIEFVDDDWWLGELEKDGSKGLFPSNYVSLGN
# B2: SHO1 (protein, UniProt P40073 1-367, looked up)
# High osmolarity signaling …: MSISSKIRPTPRKPSRMATDHSFKMKKFYADPFAISSISLAIVSWVIAIGGSISSASTNESFPRFTWWGIVYQFLIICSLMLFYCFDLVDHYRIFITTSIAVAFVYNTNSATNLVYADGPKKAAASAGVILLSIINLIWILYYGGDNASPTNRWIDSFSIKGIRPSPLENSLHRARRRGNRNTTPYQNNVYNDAIRDSGYATQFDGYPQQQPSHTNYVSSTALAGFENTQPNTSEAVNLHLNTLQQRINSASNAKETNDNSNNQTNTNIGNTFDTDFSNGNTETTMGDTLGLYSDIGDDNFIYKAKALYPYDADDDDAYEISFEQNEILQVSDIEGRWWKARRANGETGIIPSNYVQLIDGPEEMHR
# B3: YBL039C (protein, UniProt P28274 1-579, looked up)
# CTP synthase 1: MKYVVVSGGVISGIGKGVLASSTGMLMKTLGLKVTSIKIDPYMNIDAGTMSPLEHGECFVLDDGGETDLDLGNYERYLGVTLTKDHNITTGKIYSHVIAKERKGDYLGKTVQIVPHLTNAIQDWIERVAKIPVDDTGMEPDVCIIELGGTVGDIESAPFVEALRQFQFKVGKENFALIHVSLVPVIHGEQKTKPTQAAIKGLRSLGLVPDMIACRCSETLDKPTIDKIAMFCHVGPEQVVNVHDVNSTYHVPLLLLEQKMIDYLHARLKLDEISLTEEEKQRGLELLSKWKATTGNFDESMETVKIALVGKYTNLKDSYLSVIKALEHSSMKCRRKLDIKWVEATDLEPEAQESNKTKFHEAWNMVSTADGILIPGGFGVRGTEGMVLAARWARENHIPFLGVCLGLQIATIEFTRSVLGRKDSHSAEFYPDIDEKNHVVVFMPEIDKETMGGSMRLGLRPTFFQNETEWSQIKKLYGDVSEVHERHRHRYEINPKMVDELENNGLIFVGKDDTGKRCEILELKNHPYYIATQYHPEYTSKVLDPSKPFLGLVAASAGILQDVIEGKYDLEAGENKFNF
# Key:
# Format in all cases: cell-based, Saccharomyces cerevisiae
# Hua2 = assay: Low-throughput liquid DHFR-PCA of selected Abp1 SH3 mutants (Fig. S3F); details: average
# Experimental: Liquid DHFR-PCA low-throughput experiments were performed to validate the PPIs identified as affected by the SH3 domain deletions in the high-throughput solid DHFR-PCA screen (256 PPIs weaker or lost and 116 PPIs stronger or gained following domain deletions). Mating and the diploid selection were performed as described for the large-scale experiment, with the exception that the plates were in 384 formats. Following the second diploid selection, diploid cells were inoculated in a 96 v-shaped well plate using a robotically manipulated 96 pin tool in a synthetic complete medium with MSG at pH 6.0 with NAT and HPH. After 48 h of growth, optical density (OD) was read using a TECAN Infinite F200 Pro, and dilutions to 1 OD in sterile nanopure water were prepared. Cells were then diluted to 0.1 OD by combining 25 µl of cell suspension at OD = 1 and 225 µl of PCA selection media without agar in a 96-wells plate. Plates were incubated at 30 °C in a TECAN Infinite M Nano and OD was monitored each 15 min for 72 h. […]
# Selected non-conserved positions (E6 , E13, N15 and N27) sensitivities to mutations for the Abp1-Hua2 PPI were tested in a low -throughput liquid DHFR -PCA assay. The growth of the mutants in the low -throughput experiment (average of four replicates of the total OD for each growth curve, y axis ) is compared to the mutants DMS score (x axis). […]
# Lsb3 = assay: Deep mutational scanning of Abp1 SH3, Abp1-Lsb3 DHFR-PCA (DMS score); details: Abp1-Lsb3 DHFR-PCA; WT = 0; Fig. S3C-D
# How it was run: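 Abp1 SH3 variants from NNN codon saturation mutagenesis at all 58 positions were reintegrated genomically in yeast by CRISPR, pooled, and mated with DHFR F[3] prey strains. Diploids underwent two 72 h liquid DHFR-PCA selections at 30 °C, and mutant abundance was read by Illumina sequencing against the pre-selection reference.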
# [1] = tested on: PPIs identified as affected by the SH3 domain deletions; assay: Liquid DHFR-PCA low-throughput validation of PPIs affected by SH3 deletion (Fig. S1D-E); details: Deletedscore/WTscore
# How it was run: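 Yeast diploids from DHFR-PCA mating grown 48 h in synthetic complete MSG medium pH 6.0 with NAT and HPH, normalized to 1 OD and diluted to 0.1 OD in liquid PCA selection medium. Growth followed by OD every 15 min for 72 h at 30 °C.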
# BBC1 = assay: DHFR-PCA on solid medium, bait BBC1 (Fig. 1B); details: bait BBC1, label = prey
# From the text: Supplement 41467_2021_21873_MOESM8_ESM.xlsx, sheet "Fig1B" | column: medsize; medrep; Ratio; Score
molecule,measurement,setting,value
B1,ave_au (DMS validation),Hua2,93.0274 au
same,DMS score Lsb3,Lsb3,0
B2,Ratio,[1]; prey YJL128C_1,0.6814
same,Ratio,[1]; prey YOR042W_1,0.502
B3,"medrep (log2 median colony size normalized to plate background, PCA score)",BBC1; 2-4 replicates,2.387
same,Ratio (SH3-deleted/WT medrep),"BBC1; only significant differences showed, PPIs completely lost have a ratio of 0.1 and the gained PPIs 2.5",0.1
